{"source": "paper PMC6070752", "key": {"[1]": {"target": "T1, His6-MgrA (Staphylococcus aureus NCTC8325) (UniProt Q2G0B1)", "T1 sequence": "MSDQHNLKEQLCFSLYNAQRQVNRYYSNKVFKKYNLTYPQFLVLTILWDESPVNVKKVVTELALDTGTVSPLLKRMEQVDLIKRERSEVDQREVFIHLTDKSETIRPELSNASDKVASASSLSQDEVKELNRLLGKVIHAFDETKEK", "experiment": "competition", "details": "EMSA: 50 mM Tris-HCl pH 8.0, 200 mM NaCl, 25°C, 1 h, DNase I footprinting: 20 mM Tris-HCl pH 8.0, 100 mM NaCl, 5 mM MgCl2, 1 mM CaCl2, 2 mM DTT"}, "[2]": {"target": "T1, His6-MgrA (Staphylococcus aureus NCTC8325)", "experiment": "EMSA", "details": "EMSA: 50 mM Tris-HCl pH 8.0, 200 mM NaCl, 25°C, 1 h, DNase I footprinting: 20 mM Tris-HCl pH 8.0, 100 mM NaCl, 5 mM MgCl2, 1 mM CaCl2, 2 mM DTT"}}}
{"sequence": "ACTTAAATACGAATTCAGGCAACTTAATTGTGTTAAATACAGTTTTGAATGCCTAACTGTATTTCTTTTCTCTTTAAAATACAGTTAAGTACATTATAAGATGTTGTGCGGATAAACAAACTAATTGCATCAAATTTATTTTAAAATAACAACAACAAAACGTTAAGCGAATAACATTTCGGTGATTTAAAAGCTACGCACGTTTTTGTTATCTTCAAATTTAAATTTTAAGGAGTGTTTTCAATGGAAGGTT (double strand) [unlabeled psmβ promoter fragment (Ppsmβ), 243 bp]", "values": [{"measurement": "binding", "setting": "[1]", "value": "binds"}]}
{"sequence": "ACTTAAATACGAATTCAGGCAACTTAATTGTGTTAAATACAGTTTTGAATGCCTAACTGTATTTCTTTTCTCTTTAAAATACAGTTAAGTACATTATAAGATGTTGTGCGGATAAACAAACTAATTGCATCAAATTTATTTTAAAATAACAACAACAAAACGTTAAGCGAATAACATTTCGGTGATTTAAAAGCTACGCACGTTTTTGTTATCTTCAAATTTAAATTTTAAGGAGTGTTTTCAATGGAAGGTT (double strand) [psmβ promoter fragment (Ppsmβ-biotin), 243 bp]", "values": [{"measurement": "binding", "setting": "[2]", "value": "binds"}]}
